In article PMC11255866:
Where two headings read alike, the source gives them in different places.

What was measured:
Test in all cases: fluorescence polarisation
[1] = biological target: U1‐70K BAD1 255–278 (human) (UniProt P08621)
[2] = biological target: SRSF1 RRM1 (residues 14–90), Alexa Fluor 488 labelled (human) (UniProt Q07955)
[3] = biological target: SRSF1 RRM1 (residues 14–90), Alexa Fluor 488 labelled (human) (UniProt Q07955); remark: listed apart in the source
[4] = biological target: Hyper‐phosphorylated SRSF1 (phosphorylated by Clk1), Alexa Fluor 488 labelled at T248C (human) (UniProt Q07955)
Chain of Hyper‐phosphorylated SRSF1 (phosphorylated by Clk1), Alexa Fluor 488 labelled at T248C (human) (Q07955 whole entry T248C): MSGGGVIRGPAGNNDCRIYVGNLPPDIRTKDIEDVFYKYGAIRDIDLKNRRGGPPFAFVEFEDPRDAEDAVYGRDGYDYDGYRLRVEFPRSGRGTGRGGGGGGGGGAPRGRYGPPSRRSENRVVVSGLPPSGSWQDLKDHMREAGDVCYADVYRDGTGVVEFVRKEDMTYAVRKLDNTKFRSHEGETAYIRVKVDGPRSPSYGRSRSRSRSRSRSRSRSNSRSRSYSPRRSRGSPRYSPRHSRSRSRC

Chain of U1‐70K RRM (residues 64–202) (P08621 64-202): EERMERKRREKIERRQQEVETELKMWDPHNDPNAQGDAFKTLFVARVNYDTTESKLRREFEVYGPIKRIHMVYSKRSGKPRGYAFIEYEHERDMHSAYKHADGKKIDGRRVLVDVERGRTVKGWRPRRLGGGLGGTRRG
Chain of U1‐70K RRM 92–202 (P08621 92-202): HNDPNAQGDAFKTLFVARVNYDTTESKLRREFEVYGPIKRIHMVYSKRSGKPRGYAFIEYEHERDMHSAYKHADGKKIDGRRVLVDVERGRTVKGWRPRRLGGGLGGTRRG
Chain of Hyper phosphorylated SRSF1 RS (residues 199–248), unlabelled (Q07955 199-248): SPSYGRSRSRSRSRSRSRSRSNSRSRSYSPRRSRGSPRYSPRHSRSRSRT
Chain of U1‐70K BAD1 (residues 229–306) (P08621 229-306): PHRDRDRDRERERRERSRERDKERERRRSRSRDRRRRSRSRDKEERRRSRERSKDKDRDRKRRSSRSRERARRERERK

Row | Substance | Kd [2] [µM] | Kd [3] [µM] | other results
1 | Hyper phosphorylated SRSF1 RS (residues 199–248), unlabelled (from UniProt Q07955 199-248) (domain or fragment) | – | – | Kd [1]: 2 µM
2 | U1‐70K BAD1 (residues 229–306) (from UniProt P08621 229-306) (domain or fragment) | 0.24 | – | –
3 | U1‐70K RRM 92–202 (from UniProt P08621 92-202) (domain or fragment) | – | 7 | –
4 | U1‐70K RRM (residues 64–202) (from UniProt P08621 64-202) (domain or fragment) | 3 | 6 | –
5 | U1‐70K ΔBAD2 (domain or fragment) | – | – | Kd [4]: 0.65 µM
